According to patent publication US20250163127A1:
Positions count from the first letter of the chain named. In names and notes the source's numbering stands.

B1: variant CD80 V4M/L70Q/A91G/I118V/T120S/T130A/K169E (Fc fusion)
chain: VIHMTKEVKEVATLSCGHNVSVEELAQTRIYWQKEKKMVLTMMSGDMNIWPEYKNRTIFDITNNLSIVIQALRPSDEGTYECVVLKYEKDGFKREHLAEVTLSVKADFPTPSISDFEVPSSNIRRIICSASGGFPEPHLSWLENGEELNAINTTVSQDPETELYAVSSELDFNMTTNHSFMCLIKYGHLRVNQTFNWNTTKQEHFPDN
B2: variant CD80 L70Q/A91G/I118V/T120S/T130A/K169E (Fc fusion)
chain: B1 chain with M4V
B3: variant CD80 S44P/L70Q/A91G/T130A (Fc fusion)
chain: B1 chain with M4V, S44P, V118I, S120T, E169K
B4: variant CD80 K37E/F59S/L70Q/A91G/T120S/T130A (Fc fusion)
chain: B1 chain with M4V, K37E, F59S, V118I, E169K
B5: variant CD80 K54M/L70Q/A91G/Y164H (Fc fusion)
chain: B1 chain with M4V, K54M, V118I, S120T, A130T, Y164H, E169K
B6: variant CD80 A91G/L102S (Fc fusion)
chain: B1 chain with M4V, Q70L, L102S, V118I, S120T, A130T, E169K
B7: ICOSL-Fc N52Q/N57F (Fc fusion)
chain: DTQEKEVRAMVGSDVELSCACPEGSRFDLNDVYVYWQTSESKTVVTYHIPQQSSLEFVDSRYRNRALMSPAGMLRGDFSLRLFNVTPQDEQKFHCLVLSQSLGFQEVLSVEVTLHVAANFSVPVVSAPHSPSQDELTFTCTSINGYPRPNVYWINKTDNSLLDQALQNDTVFLNMRGLYDVVSVLRIARTPSVNIGCCIENVLLQQNLTVGSQTGNDIGERDKITENPVSTGEKNAAT
B8: ICOSL-Fc N52Q/N57S/Q100A (Fc fusion)
chain: B7 chain with F57S, Q100A
B9: ICOSL-Fc N52R/N57L/Q100A (Fc fusion)
chain: B7 chain with Q52R, F57L, Q100A
B10: ICOSL-Fc N52R/N57Y/Q100S (Fc fusion)
chain: B7 chain with Q52R, F57Y, Q100S
B11: ICOSL-Fc N52S/N57H/Q100E (Fc fusion)
chain: B7 chain with Q52S, F57H, Q100E
B12: ICOSL-Fc N52S/N57L/Q100S (Fc fusion)
chain: B7 chain with Q52S, F57L, Q100S
B13: ICOSL-Fc N52S/N57M/Q100S (Fc fusion)
chain: B7 chain with Q52S, F57M, Q100S
B14: ICOSL-Fc N52S/N57Y/Q100S (Fc fusion)
chain: B7 chain with Q52S, F57Y, Q100S
B15: ICOSL-Fc N52S/N57Y/Q100M (Fc fusion)
chain: B7 chain with Q52S, F57Y, Q100M
B16: ICOSL-Fc N52S/N57Y/Q100V (Fc fusion)
chain: B7 chain with Q52S, F57Y, Q100V
B17: ICOSL-Fc N52T/N57H/Q100S (Fc fusion)
chain: B7 chain with Q52T, F57H, Q100S
B18: ICOSL-Fc N52T/N57H/Q100A (Fc fusion)
chain: B7 chain with Q52T, F57H, Q100A
B19: ICOSL-Fc N52K/N57Y/Q100R (Fc fusion)
chain: B7 chain with Q52K, F57Y, Q100R
B20: ICOSL-Fc N52L/N57H/Q100R (Fc fusion)
chain: B7 chain with Q52L, F57H, Q100R
B21: ICOSL-Fc N52R/N57F/Q100T (Fc fusion)
chain: B7 chain with Q52R, Q100T
B22: ICOSL-Fc N52R/N57L/Q100S (Fc fusion)
chain: B7 chain with Q52R, F57L, Q100S
B23: ICOSL-Fc N52R/N57W/Q100K (Fc fusion)
chain: B7 chain with Q52R, F57W, Q100K
B24: ICOSL-Fc N52R/N57Y/Q100R (Fc fusion)
chain: B7 chain with Q52R, F57Y, Q100R
B25: ICOSL-Fc N52C/N57E/Q100S (Fc fusion)
chain: B7 chain with Q52C, F57E, Q100S
B26: ICOSL-Fc N52G/N57V/Q100G (Fc fusion)
chain: B7 chain with Q52G, F57V, Q100G
B27: ICOSL-Fc N52G/N57V (Fc fusion)
chain: B7 chain with Q52G, F57V
B28: ICOSL-Fc N52L/N57V (Fc fusion)
chain: B7 chain with Q52L, F57V
B29: ICOSL-Fc N52P/N57S/Q100G (Fc fusion)
chain: B7 chain with Q52P, F57S, Q100G
B30: ICOSL-Fc N52V/N57T/Q100L (Fc fusion)
chain: B7 chain with Q52V, F57T, Q100L
B31: ICOSL-Fc N57Q/Q100P (Fc fusion)
chain: B7 chain with Q52N, F57Q, Q100P

How the values were obtained:
[1] = target: CD28 (human) (UniProt P10747); assay: flow cytometry, cells expressing CD28
[2] = target: PD-L1 (human); assay: flow cytometry, cells expressing PD-L1
Sequence of PD-L1 (human) (chain, as listed by the source): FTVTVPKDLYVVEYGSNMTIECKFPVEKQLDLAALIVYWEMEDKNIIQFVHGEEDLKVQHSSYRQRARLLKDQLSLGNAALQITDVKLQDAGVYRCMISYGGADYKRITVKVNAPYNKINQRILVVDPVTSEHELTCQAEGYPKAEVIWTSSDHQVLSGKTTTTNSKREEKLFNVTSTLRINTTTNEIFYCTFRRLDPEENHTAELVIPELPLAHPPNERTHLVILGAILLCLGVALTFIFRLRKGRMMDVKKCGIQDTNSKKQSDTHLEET

[3] = target: CTLA-4 (human); assay: flow cytometry, cells expressing CTLA-4
Sequence of CTLA-4 (human) (chain, as listed by the source): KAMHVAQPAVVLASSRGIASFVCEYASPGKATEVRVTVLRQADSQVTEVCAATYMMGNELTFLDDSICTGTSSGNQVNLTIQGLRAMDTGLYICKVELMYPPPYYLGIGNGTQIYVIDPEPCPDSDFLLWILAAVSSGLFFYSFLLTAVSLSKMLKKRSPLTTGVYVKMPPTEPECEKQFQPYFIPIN

[4] = target: CD28 (human) (UniProt P10747); assay: flow cytometry, transfected cells
[5] = target: CTLA-4 (Homo sapiens (Human)) (UniProt P16410); assay: flow cytometry, transfected cells
[6] = substrate: ICOS (Homo sapiens (Human)) (UniProt Q9Y6W8); assay: flow cytometry, transfected cells
Sequence of ICOS (Homo sapiens (Human)) (Q9Y6W8 21-199 limits assumed): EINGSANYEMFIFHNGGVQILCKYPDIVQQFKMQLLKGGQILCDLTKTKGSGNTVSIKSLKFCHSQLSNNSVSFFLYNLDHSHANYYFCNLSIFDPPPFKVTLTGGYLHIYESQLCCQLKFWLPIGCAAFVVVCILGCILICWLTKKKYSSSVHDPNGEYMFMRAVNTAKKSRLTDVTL

Binder | MFI [1] | parental ratio [1] | MFI [2] | parental ratio [2] | MFI [3] | parental ratio [3] | MFI [4] | MFI ratio to WT (ΔWT) [4] | MFI [5] | MFI ratio to WT (ΔWT) [5] | MFI [6] | MFI ratio to WT (ΔWT) [6]
B1 | 89 MFI | 0.94 | 6 MFI | 0.09 | 263 MFI | 1.26 | – | – | – | – | – | –
B2 | – | – | 6 MFI | – | – | – | – | – | – | – | – | –
B3 | 88 MFI | 0.92 | 5 MFI | 0.07 | 134 MFI | 0.64 | – | – | – | – | – | –
B4 | 20 MFI | 0.21 | 6 MFI | 0.08 | 74 MFI | 0.36 | – | – | – | – | – | –
B5 | 68 MFI | 0.71 | 5 MFI | 0.08 | 131 MFI | 0.63 | – | – | – | – | – | –
B6 | 6 MFI | 0.06 | 5 MFI | 0.08 | 6 MFI | 0.03 | – | – | – | – | – | –
B7 | – | – | – | – | – | – | 131000 MFI | 5.9 fold | 367000 MFI | 1.11 fold | 192000 MFI | 0.91 fold
B8 | – | – | – | – | – | – | 91300 MFI | 4.1 fold | 315000 MFI | 0.95 fold | 263000 MFI | 1.24 fold
B9 | – | – | – | – | – | – | 119000 MFI | 5.3 fold | 403000 MFI | 1.22 fold | 308000 MFI | 1.45 fold
B10 | – | – | – | – | – | – | 133000 MFI | 6 fold | 504000 MFI | 1.53 fold | 229000 MFI | 1.08 fold
B11 | – | – | – | – | – | – | 117000 MFI | 5.2 fold | 302000 MFI | 0.92 fold | 258000 MFI | 1.22 fold
B12 | – | – | – | – | – | – | 108000 MFI | 4.8 fold | 197000 MFI | 0.6 fold | 269000 MFI | 1.27 fold
B13 | – | – | – | – | – | – | 134000 MFI | 6 fold | 228000 MFI | 0.69 fold | 312000 MFI | 1.47 fold
B14 | – | – | – | – | – | – | 161000 MFI | 7.2 fold | 205000 MFI | 0.62 fold | 224000 MFI | 1.06 fold
B15 | – | – | – | – | – | – | 157000 MFI | 7 fold | 395000 MFI | 1.2 fold | 303000 MFI | 1.43 fold
B16 | – | – | – | – | – | – | 126000 MFI | 5.7 fold | 305000 MFI | 0.92 fold | 219000 MFI | 1.03 fold

Binder | MFI [1] | parental ratio [1] | MFI [2] | parental ratio [2] | MFI [3] | parental ratio [3] | MFI [4] | MFI ratio to WT (ΔWT) [4] | MFI [5] | MFI ratio to WT (ΔWT) [5] | MFI [6] | MFI ratio to WT (ΔWT) [6]
B17 | – | – | – | – | – | – | 143000 MFI | 6.4 fold | 378000 MFI | 1.14 fold | 259000 MFI | 1.22 fold
B18 | – | – | – | – | – | – | 113000 MFI | 5 fold | 350000 MFI | 1.06 fold | 220000 MFI | 1.04 fold
B19 | – | – | – | – | – | – | 141000 MFI | 6.3 fold | 233000 MFI | 0.71 fold | 199000 MFI | 0.94 fold
B20 | – | – | – | – | – | – | 141000 MFI | 6.3 fold | 353000 MFI | 1.07 fold | 250000 MFI | 1.18 fold
B21 | – | – | – | – | – | – | 127000 MFI | 5.7 fold | 358000 MFI | 1.08 fold | 270000 MFI | 1.27 fold
B22 | – | – | – | – | – | – | 112000 MFI | 5 fold | 289000 MFI | 0.88 fold | 231000 MFI | 1.09 fold
B23 | – | – | – | – | – | – | 131000 MFI | 5.9 fold | 477000 MFI | 1.44 fold | 349000 MFI | 1.65 fold
B24 | – | – | – | – | – | – | 3280 MFI | 0.1 fold | 4270 MFI | 0.01 fold | 6100 MFI | 0.03 fold
B25 | – | – | – | – | – | – | 13400 MFI | 0.6 fold | 10600 MFI | 0.03 fold | 125000 MFI | 0.59 fold
B26 | – | – | – | – | – | – | 23700 MFI | 1.1 fold | 14700 MFI | 0.04 fold | 260000 MFI | 1.23 fold
B27 | – | – | – | – | – | – | 69100 MFI | 3.1 fold | 52500 MFI | 0.16 fold | 332000 MFI | 1.57 fold
B28 | – | – | – | – | – | – | 54800 MFI | 2.5 fold | 151000 MFI | 0.46 fold | 257000 MFI | 1.21 fold
B29 | – | – | – | – | – | – | 6800 MFI | 0.3 fold | 5050 MFI | 0.02 fold | 143000 MFI | 0.68 fold
B30 | – | – | – | – | – | – | 6200 MFI | 0.3 fold | 11500 MFI | 0.03 fold | 29200 MFI | 0.14 fold
B31 | – | – | – | – | – | – | 15200 MFI | 0.7 fold | 69100 MFI | 0.21 fold | 205000 MFI | 0.97 fold
